Biological target: the molecule itself
Experiment: crystal structure

B1: NapA from Thermus thermophilus, triple cysteine mutant (Met20, Val166, Val326 to cysteine) (natural protein)
chain: MHGAEHLLEIFYLLLAAQVCAFIFKRLNQPVVIGEVLAGVLVGPALLGLVHEGEILEFLAELGAVFLLFMVGLETRLKDILAVGKEAFLVAVLGVALPFLGGYLYGLEIGFETLPALFLGTALVATSVGITARVLQELGVLSRPYSRIILGAAVIDDVLGLIVLACVNGVAETGQVEVGAITRLIVLSVVFVGLAVFLSTLIARLPLERLPVGSPLGFALALGVGMAALAASIGLAPIVGAFLGGMLLSEVREKYRLEEPIFAIESFLAPIFFAMVGVRLELSALASPVVLVAGTVVTVIAILGKVLGGFLGALTQGVRSALTVGCGMAPRGEVGLIVAALGLKAGAVNEEEYAIVLFMVVFTTLFAPFALKPLIAWTERERAAKEGSENLYFQ
binding result: binds
